Measured values: patent publication US20230322940A1 (published 2023)

Target: CD44 on CD44-positive and CD133-positive glioma stem cells GSC20 (UniProt P16070 21-742)
Experiment: cell-based or functional assay

Binder	Lysis rate of glioma stem cells by CAR-T cells (LDH release), effect-target ratio 1:1 [%]	Lysis rate of glioma stem cells by CAR-T cells (LDH release), effect-target ratio 2:1 [%]	Lysis rate of glioma stem cells by CAR-T cells (LDH release), effect-target ratio 3:1 [%]	Lysis rate of glioma stem cells by CAR-T cells (LDH release), effect-target ratio 5:1 [%]
fusion protein shown in SEQ ID NO. 5 (anti-CD44 single-chain antibody, CD28, truncated body of IL7Rα, CD3), expressed on CAR-T 3 cells (other) QVQLVESGGGVVQPGRSLRLSCAASGFTFSSYGMHWVRQAPGKGLEWVAVIWYDGSNKFYADSVKGRFTISRDNSKNTLYLQMNSLRAEDTAVYYCARRSDYRGYYGMDVWGQGTTVTVSSGSTSGGGSGGGSGGGGSSEIVLTQSPATLSLSPGERATLSCRASQSVINYLAWYQQKPGQAPRLLIYDASNRASGIPARFSGSGSGTDFTLTISSLEPEDFAVYYCQQRRNWPLTFGGGTKVEIKTTTPAPRPPTPAPTIASQPLSLRPEACRPAAGGAVHTRGLDFACDIYIWAPLAGTCGVLLLSLVITLYCRSKRSRLLHSDYMNMTPRRPGPTRKHYQPYAPPRDFAAYRSKKRIKPIVWPSLPDHKKTLEHLCKKPRKNLNVSFNPESFLDCQIHRVDDIQARDEVEGFLQDTFPQQLEESEKQRLLGSNQEEAYVTMSSFYQNQRVKFSRSADAPAYKQGQNQLYNELNLGRREEYDVLDKRRGRDPEMGGKPRRKNPQEGLYNELQKDKMAEAYSEIGMKGERRRGKGHDGLYQGLSTATKDTYDALHMQALPPR	15.2	35.2	44	62.5
fusion protein shown in SEQ ID NO. 6 (anti-CD44 single-chain antibody, CD28, CD3, T2A, anti-TIM3 single-chain antibody), expressed on CAR-T 4 cells (other) QVQLVESGGGVVQPGRSLRLSCAASGFTFSSYGMHWVRQAPGKGLEWVAVIWYDGSNKFYADSVKGRFTISRDNSKNTLYLQMNSLRAEDTAVYYCARRSDYRGYYGMDVWGQGTTVTVSSGSTSGGGSGGGSGGGGSSEIVLTQSPATLSLSPGERATLSCRASQSVINYLAWYQQKPGQAPRLLIYDASNRASGIPARFSGSGSGTDFTLTISSLEPEDFAVYYCQQRRNWPLTFGGGTKVEIKTTTPAPRPPTPAPTIASQPLSLRPEACRPAAGGAVHTRGLDFACDIYIWAPLAGTCGVLLLSLVITLYCRSKRSRLLHSDYMNMTPRRPGPTRKHYQPYAPPRDFAAYRSRVKFSRSADAPAYKQGQNQLYNELNLGRREEYDVLDKRRGRDPEMGGKPRRKNPQEGLYNELQKDKMAEAYSEIGMKGERRRGKGHDGLYQGLSTATKDTYDALHMQALPPREGRGSLLTCGDVEENPGPMTNKCLLQIALLLCFSTTALSQVQLQQSGPGLVKPSHTLSLTCTVSGGSISSGGYYWSWTRQHPGMGLEWIGYISYSGSIYYTPSLKSRLTISVDTSKNQFSLKLSSVTAADTAVYYCASLDSWGSNRDYWGQGTLVTVSSGGGGSEIVLTQSPATLSLSPGERATLSCRASQSVSSYLAWYQQKPGQAPRLLIYDASNRATGIPARFSGSGSGTDFTLTISSLEPEDFAVYYCQQRSNWPLTFGGGTKVEIK	22.2	37.3	56.2	61.4
fusion protein shown in SEQ ID NO. 4 (anti-CD44 single-chain antibody, anti-CD133 single-chain antibody, CD28, CD3), expressed on CAR-T 2 cells (other) QVQLVESGGGVVQPGRSLRLSCAASGFTFSSYGMHWVRQAPGKGLEWVAVIWYDGSNKFYADSVKGRFTISRDNSKNTLYLQMNSLRAEDTAVYYCARRSDYRGYYGMDVWGQGTTVTVSSGSTSGGGSGGGSGGGGSSEIVLTQSPATLSLSPGERATLSCRASQSVINYLAWYQQKPGQAPRLLIYDASNRASGIPARFSGSGSGTDFTLTISSLEPEDFAVYYCQQRRNWPLTFGGGTKVEIKGGGGSGGGGSGGGGSQVQLVQSGAEVKKPGASVKVSCKASGYTFTDFEMHWVRQAPGQGLEWMGDIDPGTGDTAYNLKFKGRVTMTTDTSTSTAYMELRSLRSDDTAVYYCALGAFVYWGQGTLVTVSSGSTSGGGSGGGSGGGGSSDVVMTQSPLSLPVTPGEPASISCRSSQSLANSYGNTYLSWYLQKPGQSPQLLIYGISNRFSGVPDRFSGSGSGTDFTLKISRVEAEDVGVYYCLQGTHQPYTFGQGTKLEIKTTTPAPRPPTPAPTIASQPLSLRPEACRPAAGGAVHTRGLDFACDIYIWAPLAGTCGVLLLSLVITLYCRSKRSRLLHSDYMNMTPRRPGPTRKHYQPYAPPRDFAAYRSRVKFSRSADAPAYKQGQNQLYNELNLGRREEYDVLDKRRGRDPEMGGKPRRKNPQEGLYNELQKDKMAEAYSEIGMKGERRRGKGHDGLYQGLSTATKDTYDALHMQALPPR	14	23.2	41	56.9
fusion protein shown in SEQ ID NO. 3 (anti-CD44 single-chain antibody, CD28, CD3), expressed on CAR-T 1 cells (other) QVQLVESGGGVVQPGRSLRLSCAASGFTFSSYGMHWVRQAPGKGLEWVAVIWYDGSNKFYADSVKGRFTISRDNSKNTLYLQMNSLRAEDTAVYYCARRSDYRGYYGMDVWGQGTTVTVSSGSTSGGGSGGGSGGGGSSEIVLTQSPATLSLSPGERATLSCRASQSVINYLAWYQQKPGQAPRLLIYDASNRASGIPARFSGSGSGTDFTLTISSLEPEDFAVYYCQQRRNWPLTFGGGTKVEIKTTTPAPRPPTPAPTIASQPLSLRPEACRPAAGGAVHTRGLDFACDIYIWAPLAGTCGVLLLSLVITLYCRSKRSRLLHSDYMNMTPRRPGPTRKHYQPYAPPRDFAAYRSRVKFSRSADAPAYKQGQNQLYNELNLGRREEYDVLDKRRGRDPEMGGKPRRKNPQEGLYNELQKDKMAEAYSEIGMKGERRRGKGHDGLYQGLSTATKDTYDALHMQALPPR	9.93	12.2	35	57.3

Now from value to binder:

Lysis rate of glioma stem cells by CAR-T cells (LDH release), effect-target ratio 1:1 [%]	Lysis rate of glioma stem cells by CAR-T cells (LDH release), effect-target ratio 2:1 [%]	Lysis rate of glioma stem cells by CAR-T cells (LDH release), effect-target ratio 3:1 [%]	Lysis rate of glioma stem cells by CAR-T cells (LDH release), effect-target ratio 5:1 [%]	Binder
30.3	48.5	51.2	81.2	fusion protein shown in SEQ ID NO. 7 (anti-CD44 single-chain antibody, CD28, truncated body of IL7Rα, CD3, T2A, anti-TIM3 single-chain antibody), expressed on … (other) QVQLVESGGGVVQPGRSLRLSCAASGFTFSSYGMHWVRQAPGKGLEWVAVIWYDGSNKFYADSVKGRFTISRDNSKNTLYLQMNSLRAEDTAVYYCARRSDYRGYYGMDVWGQGTTVTVSSGSTSGGGSGGGSGGGGSSEIVLTQSPATLSLSPGERATLSCRASQSVINYLAWYQQKPGQAPRLLIYDASNRASGIPARFSGSGSGTDFTLTISSLEPEDFAVYYCQQRRNWPLTFGGGTKVEIKTTTPAPRPPTPAPTIASQPLSLRPEACRPAAGGAVHTRGLDFACDIYIWAPLAGTCGVLLLSLVITLYCRSKRSRLLHSDYMNMTPRRPGPTRKHYQPYAPPRDFAAYRSKKRIKPIVWPSLPDHKKTLEHLCKKPRKNLNVSFNPESFLDCQIHRVDDIQARDEVEGFLQDTFPQQLEESEKQRLLGSNQEEAYVTMSSFYQNQRVKFSRSADAPAYKQGQNQLYNELNLGRREEYDVLDKRRGRDPEMGGKPRRKNPQEGLYNELQKDKMAEAYSEIGMKGERRRGKGHDGLYQGLSTATKDTYDALHMQALPPREGRGSLLTCGDVEENPGPMTNKCLLQIALLLCFSTTALSQVQLQQSGPGLVKPSHTLSLTCTVSGGSISSGGYYWSWTRQHPGMGLEWIGYISYSGSIYYTPSLKSRLTISVDTSKNQFSLKLSSVTAADTAVYYCASLDSWGSNRDYWGQGTLVTVSSGGGGSEIVLTQSPATLSLSPGERATLSCRASQSVSSYLAWYQQKPGQAPRLLIYDASNRATGIPARFSGSGSGTDFTLTISSLEPEDFAVYYCQQRSNWPLTFGGGTKVEIK
31.1	50	62.8	86.8	fusion protein shown in SEQ ID NO. 8 (anti-CD44 single-chain antibody, anti-CD133 single-chain antibody, CD28, truncated body of IL7Rα, CD3, T2A, anti-TIM3 … (other) QVQLVESGGGVVQPGRSLRLSCAASGFTFSSYGMHWVRQAPGKGLEWVAVIWYDGSNKFYADSVKGRFTISRDNSKNTLYLQMNSLRAEDTAVYYCARRSDYRGYYGMDVWGQGTTVTVSSGSTSGGGSGGGSGGGGSSEIVLTQSPATLSLSPGERATLSCRASQSVINYLAWYQQKPGQAPRLLIYDASNRASGIPARFSGSGSGTDFTLTISSLEPEDFAVYYCQQRRNWPLTFGGGTKVEIKGGGGSGGGGSGGGGSQVQLVQSGAEVKKPGASVKVSCKASGYTFTDFEMHWVRQAPGQGLEWMGDIDPGTGDTAYNLKFKGRVTMTTDTSTSTAYMELRSLRSDDTAVYYCALGAFVYWGQGTLVTVSSGSTSGGGSGGGSGGGGSSDVVMTQSPLSLPVTPGEPASISCRSSQSLANSYGNTYLSWYLQKPGQSPQLLIYGISNRFSGVPDRFSGSGSGTDFTLKISRVEAEDVGVYYCLQGTHQPYTFGQGTKLEIKTTTPAPRPPTPAPTIASQPLSLRPEACRPAAGGAVHTRGLDFACDIYIWAPLAGTCGVLLLSLVITLYCRSKRSRLLHSDYMNMTPRRPGPTRKHYQPYAPPRDFAAYRSKKRIKPIVWPSLPDHKKTLEHLCKKPRKNLNVSFNPESFLDCQIHRVDDIQARDEVEGFLQDTFPQQLEESEKQRLLGSNQEEAYVTMSSFYQNQRVKFSRSADAPAYKQGQNQLYNELNLGRREEYDVLDKRRGRDPEMGGKPRRKNPQEGLYNELQKDKMAEAYSEIGMKGERRRGKGHDGLYQGLSTATKDTYDALHMQALPPREGRGSLLTCGDVEENPGPMTNKCLLQIALLLCFSTTALSQVQLQQSGPGLVKPSHTLSLTCTVSGGSISSGGYYWSWTRQHPGMGLEWIGYISYSGSIYYTPSLKSRLTISVDTSKNQFSLKLSSVTAADTAVYYCASLDSWGSNRDYWGQGTLVTVSSGGGGSEIVLTQSPATLSLSPGERATLSCRASQSVSSYLAWYQQKPGQAPRLLIYDASNRATGIPARFSGSGSGTDFTLTISSLEPEDFAVYYCQQRSNWPLTFGGGTKVEIK
